Among the data in the Human Domainome abundance scans (Beltran et al. 2025) are abundance fitness values, retold here.

B1: Far upstream element-binding protein 1, residues 98 to 169; numbered along this chain, Q96AE4 (parent)
chain: RSVMTEEYKVPDGMVGFIIGRGGEQISRIQQESGCKIQIAPDSGGLPERSCMLTGTPESVQSAKRLLDQIVE

± gives the uncertainty stated by the source.

The variants in this series derive from B1. Nature of the series: abundance fitness (aPCA) (normalised: wild type 0, dead -1); higher = more abundant; growth selection in yeast, the domain comes from the species named. Conditions: Homo sapiens.
For RSVMTEEYKVPDGMVGFIIGRGGESISRIQQESGCKIQIAPDSGGLPERSCMLTGTPESVQSAKRLLDQIVE [Q25S], the abundance fitness was -0.023 ± 0.028.

On to RSVMTEEYKVPDGMVGFIIGRGGEVISRIQQESGCKIQIAPDSGGLPERSCMLTGTPESVQSAKRLLDQIVE [Q25V], for which the abundance fitness was -0.07 ± 0.027.

Turning to RSVMTEEYKVPDGMVGFIIGRGGERISRIQQESGCKIQIAPDSGGLPERSCMLTGTPESVQSAKRLLDQIVE [Q25R], the abundance fitness is -0.016 ± 0.022.

With RSVMTEEYKVPDGMVGFIIGRGGEYISRIQQESGCKIQIAPDSGGLPERSCMLTGTPESVQSAKRLLDQIVE [Q25Y], the abundance fitness was -0.132 ± 0.046.

As to RSVMTEEYKVPDGMVGFIIGRGGEWISRIQQESGCKIQIAPDSGGLPERSCMLTGTPESVQSAKRLLDQIVE [Q25W], the abundance fitness is -0.145 ± 0.028.

RSVMTEEYKVPDGMVGFIIGRGGEQISRIQCESGCKIQIAPDSGGLPERSCMLTGTPESVQSAKRLLDQIVE [Q31C]: the abundance fitness stood at 0.001 ± 0.048.

For RSVMTEEYKVPDGMVGFIIGRGGEQISRIQDESGCKIQIAPDSGGLPERSCMLTGTPESVQSAKRLLDQIVE [Q31D], the abundance fitness was determined as 0.034 ± 0.043.

Take RSVMTEEYKVPDGMVGFIIGRGGEQISRIQAESGCKIQIAPDSGGLPERSCMLTGTPESVQSAKRLLDQIVE [Q31A]: the abundance fitness is -0.026 ± 0.028.

Regarding RSVMTEEYKVPDGMVGFIIGRGGEQISYIQQESGCKIQIAPDSGGLPERSCMLTGTPESVQSAKRLLDQIVE [R28Y], the abundance fitness was -0.131 ± 0.044.

Consider RSVMTEEYKVPDGMVGFIIGRGGEQISWIQQESGCKIQIAPDSGGLPERSCMLTGTPESVQSAKRLLDQIVE [R28W], for which the abundance fitness is -0.104 ± 0.032.

Take RSVMTEEYKVPDGMVGFIIGRGGEQISQIQQESGCKIQIAPDSGGLPERSCMLTGTPESVQSAKRLLDQIVE [R28Q]: the abundance fitness is -0.033 ± 0.038.

Turning to RSVMTEEYKVPDGMVGFIIGRGGEQISKIQQESGCKIQIAPDSGGLPERSCMLTGTPESVQSAKRLLDQIVE [R28K], the abundance fitness was -0.028 ± 0.038.

As for RSVMTEEYKVPDGMVGFIIGRGGEQISTIQQESGCKIQIAPDSGGLPERSCMLTGTPESVQSAKRLLDQIVE [R28T], the abundance fitness is -0.068 ± 0.035.

Turning to RSVMTEEYKVPDGMVGFIIGRGGEQISNIQQESGCKIQIAPDSGGLPERSCMLTGTPESVQSAKRLLDQIVE [R28N], the abundance fitness is -0.102 ± 0.048.

Turning to RSVMTEEYKVPDGMVGFIIGRGGEQISLIQQESGCKIQIAPDSGGLPERSCMLTGTPESVQSAKRLLDQIVE [R28L], the abundance fitness is -0.071 ± 0.03.

As to RSVMTEEYKVPDGMVGFIIGRGGEQISDIQQESGCKIQIAPDSGGLPERSCMLTGTPESVQSAKRLLDQIVE [R28D], the abundance fitness was -0.016 ± 0.041.

For RSVMTEEYKVPDGMVGFIIGRGGEQISHIQQESGCKIQIAPDSGGLPERSCMLTGTPESVQSAKRLLDQIVE [R28H], the abundance fitness was -0.021 ± 0.057.

Turning to RSVMTEEYKVPDGMVGFIIGRGGEQISSIQQESGCKIQIAPDSGGLPERSCMLTGTPESVQSAKRLLDQIVE [R28S], the abundance fitness was -0.045 ± 0.029.

Take RSVMTEEYKVPDGMVGFIIGRGGEQISAIQQESGCKIQIAPDSGGLPERSCMLTGTPESVQSAKRLLDQIVE [R28A]: the abundance fitness was -0.066 ± 0.028.

Regarding RSVMTEEYKVPDGMVGFIIGRGGEQISIIQQESGCKIQIAPDSGGLPERSCMLTGTPESVQSAKRLLDQIVE [R28I], the abundance fitness is -0.215 ± 0.059.

Take RSVMTEEYKVPDGMVGFIIGRGGEQISEIQQESGCKIQIAPDSGGLPERSCMLTGTPESVQSAKRLLDQIVE [R28E]: the abundance fitness was -0.058 ± 0.03.

Turning to RSVMTEEYKVPDGMVGFIIGRGGEQISVIQQESGCKIQIAPDSGGLPERSCMLTGTPESVQSAKRLLDQIVE [R28V], the abundance fitness was -0.108 ± 0.028.

With RSVMTEEYKVPDGMVGFIIGRGGEQISCIQQESGCKIQIAPDSGGLPERSCMLTGTPESVQSAKRLLDQIVE [R28C], the abundance fitness is -0.109 ± 0.056.

With RSVMTEEYKVPDGMVGFIIGRGGEQISMIQQESGCKIQIAPDSGGLPERSCMLTGTPESVQSAKRLLDQIVE [R28M], the abundance fitness was -0.083 ± 0.036.

RSVMTEEYKVPDGMVGFIIGRGGEQISFIQQESGCKIQIAPDSGGLPERSCMLTGTPESVQSAKRLLDQIVE [R28F]: the abundance fitness is -0.168 ± 0.05.

With RSVMTEEYKVPDGMVGFIIGRGGEQISGIQQESGCKIQIAPDSGGLPERSCMLTGTPESVQSAKRLLDQIVE [R28G], the abundance fitness was -0.093 ± 0.024.

RSVMTEEYKVPDGMVGFIIGRGGEQDSRIQQESGCKIQIAPDSGGLPERSCMLTGTPESVQSAKRLLDQIVE [I26D]: the abundance fitness is -0.529 ± 0.058.

On to RSVMTEEYKVPDGMVGFIIGRGGEQCSRIQQESGCKIQIAPDSGGLPERSCMLTGTPESVQSAKRLLDQIVE [I26C], for which the abundance fitness was -0.103 ± 0.043.

For RSVMTEEYKVPDGMVGFIIGRGGEQLSRIQQESGCKIQIAPDSGGLPERSCMLTGTPESVQSAKRLLDQIVE [I26L], the abundance fitness was found to be 0.023 ± 0.029.

Take RSVMTEEYKVPDGMVGFIIGRGGEQVSRIQQESGCKIQIAPDSGGLPERSCMLTGTPESVQSAKRLLDQIVE [I26V]: the abundance fitness is -0.104 ± 0.029.

Take RSVMTEEYKVPDGMVGFIIGRGGEQRSRIQQESGCKIQIAPDSGGLPERSCMLTGTPESVQSAKRLLDQIVE [I26R]: the abundance fitness is -0.17 ± 0.025.

For RSVMTEEYKVPDGMVGFIIGRGGEQQSRIQQESGCKIQIAPDSGGLPERSCMLTGTPESVQSAKRLLDQIVE [I26Q], the abundance fitness was -0.096 ± 0.035.

Consider RSVMTEEYKVPDGMVGFIIGRGGEQSSRIQQESGCKIQIAPDSGGLPERSCMLTGTPESVQSAKRLLDQIVE [I26S], for which the abundance fitness is -0.239 ± 0.033.

For RSVMTEEYKVPDGMVGFIIGRGGEQTSRIQQESGCKIQIAPDSGGLPERSCMLTGTPESVQSAKRLLDQIVE [I26T], the abundance fitness is -0.092 ± 0.039.

Turning to RSVMTEEYKVPDGMVGFIIGRGGEQASRIQQESGCKIQIAPDSGGLPERSCMLTGTPESVQSAKRLLDQIVE [I26A], the abundance fitness is -0.132 ± 0.032.

RSVMTEEYKVPDGMVGFIIGRGGEQHSRIQQESGCKIQIAPDSGGLPERSCMLTGTPESVQSAKRLLDQIVE [I26H]: the abundance fitness is -0.139 ± 0.054.

With RSVMTEEYKVPDGMVGFIIGRGGEQMSRIQQESGCKIQIAPDSGGLPERSCMLTGTPESVQSAKRLLDQIVE [I26M], the abundance fitness is -0.084 ± 0.036.
